In patent US20150352233A1 one finds IC50 data, which are given here for one substance.

The test addresses Membrane Preparation Recombinant Human GLP-1 (GLP-1R) (human) (UniProt P43220).

A word on the IC50: it is the concentration at which inhibition is half-maximal.

For the substance “non-labeled exendin4 (peptide; other documents disagree on this pair)”, the IC50 was 0.19 nM.
